Experimental data taken from patent publication US20200164085A1 (Merck Sharp & Dohme, published 2020).
Values belong to the binder of their own block, whether it stands above or below them.

Molecular target: T1, human CD74 (human, UniProt P04233 1-296)
T1 sequence (looked up): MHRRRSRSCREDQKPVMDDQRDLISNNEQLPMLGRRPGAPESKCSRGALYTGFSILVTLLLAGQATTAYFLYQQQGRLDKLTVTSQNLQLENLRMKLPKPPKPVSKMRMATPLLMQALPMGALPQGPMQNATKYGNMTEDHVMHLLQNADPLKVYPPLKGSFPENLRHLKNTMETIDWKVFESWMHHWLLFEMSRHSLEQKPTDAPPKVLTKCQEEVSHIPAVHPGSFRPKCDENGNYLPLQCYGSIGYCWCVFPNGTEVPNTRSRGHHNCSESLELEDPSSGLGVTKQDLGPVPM
Test: cell-based or functional assay

EC50, GILZ mRNA, HUT-78 cells: 1.32 µg/mL
EC50, GILZ mRNA, SUDHL-6 cells: 0.4 µg/mL
Emax, GILZ mRNA, HUT-78 cells: 4.13
Emax, GILZ mRNA, SUDHL-6 cells: 3.4
B1: ADC 12-5 (anti-hCD74 (LL1) conjugated to Linker 2-7) (antibody, human IgG1, kappa, V domains shown)
VH: QVQLQQSGSELKKPGASVKVSCKASGYTFTNYGVNWIKQAPGQGLQWMGWINPNTGEPTFDDDFKGRFAFSLDTSVSTAYLQISSLKADDTAVYFCSRSRGKNEAWFAYWGQGSLVTVSS
VL: DIQLTQSPLSLPVTLGQPASISCRSSQSLVHRNGNTYLHWFQQRPGQSPRLLIYTVSNRFSGVPDRFSGSGSGTDFTLKISRVEAEDVGVYFCSQSSHVPPTFGAGTRLEIKR
modifications: position 121 is para-azido phenylalanine (pAzF), conjugated to dexamethasone drug-linker 2-7

EC50, GILZ mRNA, HUT-78 cells: > 30 µg/mL
EC50, GILZ mRNA, SUDHL-6 cells: 14.3 µg/mL
Emax, GILZ mRNA, HUT-78 cells: 1.93
Emax, GILZ mRNA, SUDHL-6 cells: 1.52
B2: ADC 12-7 (anti-hCD74 (LL1) conjugated to Linker 4-3) (antibody, human IgG1, kappa, V domains shown)
VH: B1 VH
VL: B1 VL
modifications: position 121 is para-azido phenylalanine (pAzF), conjugated to dexamethasone drug-linker 4-3

EC50, GILZ mRNA, HUT-78 cells: 1.08 µg/mL
EC50, GILZ mRNA, SUDHL-6 cells: 0.99 µg/mL
Emax, GILZ mRNA, HUT-78 cells: 3.95
Emax, GILZ mRNA, SUDHL-6 cells: 3.44
B3: ADC 12-4 (anti-hCD74 (LL1) conjugated to Linker 1-4) (antibody, human IgG1, kappa, V domains shown)
VH: B1 VH
VL: B1 VL
modifications: position 121 is para-azido phenylalanine (pAzF), conjugated to dexamethasone drug-linker 1-4

EC50, GILZ mRNA, HUT-78 cells: 0.2 µg/mL
EC50, GILZ mRNA, SUDHL-6 cells: 0.21 µg/mL
Emax, GILZ mRNA, HUT-78 cells: 6.47
Emax, GILZ mRNA, SUDHL-6 cells: 5.89
B4: ADC 12-10 (anti-hCD74 (LL1) conjugated to Linker 9-4) (antibody, human IgG1, kappa, V domains shown)
VH: B1 VH
VL: B1 VL
modifications: position 121 is para-azido phenylalanine (pAzF), conjugated to budesonide drug-linker 9-4

EC50, GILZ mRNA, HUT-78 cells: > 30 µg/mL
EC50, GILZ mRNA, SUDHL-6 cells: > 30 µg/mL
Emax, GILZ mRNA, HUT-78 cells: 2.55
Emax, GILZ mRNA, SUDHL-6 cells: 6.48
B5: ADC 12-9 (anti-hCD74 (LL1) conjugated to Linker 6-2) (antibody, human IgG1, kappa, V domains shown)
VH: B1 VH
VL: B1 VL
modifications: position 121 is para-azido phenylalanine (pAzF), conjugated to dexamethasone drug-linker 6-2

EC50, GILZ mRNA, HUT-78 cells: 1.87 µg/mL
EC50, GILZ mRNA, SUDHL-6 cells: 0.47 µg/mL
Emax, GILZ mRNA, HUT-78 cells: 4.61
Emax, GILZ mRNA, SUDHL-6 cells: 3.33
B6: ADC 12-6 (anti-hCD74 (LL1) conjugated to Linker 3-4) (antibody, human IgG1, kappa, V domains shown)
VH: B1 VH
VL: B1 VL
modifications: position 121 is para-azido phenylalanine (pAzF), conjugated to dexamethasone drug-linker 3-4
